From PMC12343972 (Nature Communications, 2025) come the findings set out here.

Positions count from the first letter of the chain named.

One data set addresses T1, Rad50-K60A (Saccharomyces cerevisiae, UniProt P12753 1-1312, K60A).
T1 sequence: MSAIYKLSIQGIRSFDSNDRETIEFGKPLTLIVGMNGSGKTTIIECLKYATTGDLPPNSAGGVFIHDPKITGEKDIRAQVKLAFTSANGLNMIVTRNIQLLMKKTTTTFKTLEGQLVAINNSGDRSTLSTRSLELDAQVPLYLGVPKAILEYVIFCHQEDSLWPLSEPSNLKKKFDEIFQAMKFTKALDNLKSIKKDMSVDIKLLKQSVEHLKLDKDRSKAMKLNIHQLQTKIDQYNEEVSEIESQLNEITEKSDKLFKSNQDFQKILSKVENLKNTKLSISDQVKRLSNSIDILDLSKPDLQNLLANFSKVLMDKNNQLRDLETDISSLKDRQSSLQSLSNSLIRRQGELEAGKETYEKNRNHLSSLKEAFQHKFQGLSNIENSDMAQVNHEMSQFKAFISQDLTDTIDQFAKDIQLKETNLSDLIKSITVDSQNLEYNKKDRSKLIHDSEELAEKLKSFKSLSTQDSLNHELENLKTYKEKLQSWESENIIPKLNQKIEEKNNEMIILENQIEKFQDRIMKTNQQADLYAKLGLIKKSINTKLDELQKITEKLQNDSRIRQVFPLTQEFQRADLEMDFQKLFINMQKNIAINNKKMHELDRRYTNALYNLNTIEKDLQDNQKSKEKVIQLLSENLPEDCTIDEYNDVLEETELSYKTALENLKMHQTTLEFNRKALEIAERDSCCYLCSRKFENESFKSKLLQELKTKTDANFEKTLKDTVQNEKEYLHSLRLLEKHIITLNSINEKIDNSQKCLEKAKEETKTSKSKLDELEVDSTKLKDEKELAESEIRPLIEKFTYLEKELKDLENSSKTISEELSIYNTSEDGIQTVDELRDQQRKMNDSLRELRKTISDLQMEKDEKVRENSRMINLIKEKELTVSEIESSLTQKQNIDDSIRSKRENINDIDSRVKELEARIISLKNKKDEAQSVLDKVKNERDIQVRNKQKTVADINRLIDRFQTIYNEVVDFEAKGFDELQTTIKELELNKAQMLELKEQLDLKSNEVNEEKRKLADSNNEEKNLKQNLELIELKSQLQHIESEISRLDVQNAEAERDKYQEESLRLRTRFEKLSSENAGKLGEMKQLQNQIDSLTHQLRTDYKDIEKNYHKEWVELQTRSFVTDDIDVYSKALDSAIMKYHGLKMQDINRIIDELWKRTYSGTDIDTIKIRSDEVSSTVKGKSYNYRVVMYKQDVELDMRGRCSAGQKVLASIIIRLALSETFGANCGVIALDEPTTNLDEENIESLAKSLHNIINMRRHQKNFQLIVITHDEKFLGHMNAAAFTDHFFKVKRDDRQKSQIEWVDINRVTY
The data set is described as follows: EMSA. (A gel shift assay detects complexes by their altered migration in electrophoresis.)

The target of another data set is T2, Rad50-R1201A (Saccharomyces cerevisiae, UniProt P12753 1-1312, R1201A).
T2 sequence: T1 sequence with A60K, R1201A
Kind of data set: EMSA.

B1: 83-mer dsDNA (EMSA) (dsDNA)
DNA 1: TTGATAAGAGGTCATTTTTGCGGATGGCTTAGAGCTTAATTGCTGAATCTGGTGCTGTAGCTCAACATGTTTTAAATATGCAA
DNA 2: TTGCATATTTAAAACATGTTGAGCTACAGCACCAGATTCAGCAATTAAGCTCTAAGCCATCCGCAAAAATGACCTCTTATCAA
On to B1, for which the binding result in the data set with Rad50-K60A and in the data set with Rad50-R1201A was “binds” each time.
